Measurements as given in PMC9668737, “Herpes simplex virus 1 protein pUL21 alters ceramide metabolism by activating the interorganelle transport protein CERT” (The Journal of Biological Chemistry, 2022).

Tests used:
[1] = biological target: T1, StrepII-CERTL^S132A (human, UniProt Q9Y5P4-1 1-624, S132A, hypophosphorylated); assay: ITC; 25 °C; 20 mM Tris pH 8.5, 500 mM NaCl, 0.5 mM TCEP; CERTL forms in the syringe titrated into pUL21 forms in the cell; one-site binding model; details: both partners purified
T1 construct: human CERTL, UniProt Q9Y5P4-1, synthetic gene, S132A; Trimer by SEC-MALS (observed 199.2 kDa); also called constitutively hypophosphorylated form of CERTL; source: Freestyle 293F, stably transfected, doxycycline-induced, purified (StrepTrap HP, Superose 6 SEC); not shown: StrepII, N-terminal, kept
T1 sequence (looked up): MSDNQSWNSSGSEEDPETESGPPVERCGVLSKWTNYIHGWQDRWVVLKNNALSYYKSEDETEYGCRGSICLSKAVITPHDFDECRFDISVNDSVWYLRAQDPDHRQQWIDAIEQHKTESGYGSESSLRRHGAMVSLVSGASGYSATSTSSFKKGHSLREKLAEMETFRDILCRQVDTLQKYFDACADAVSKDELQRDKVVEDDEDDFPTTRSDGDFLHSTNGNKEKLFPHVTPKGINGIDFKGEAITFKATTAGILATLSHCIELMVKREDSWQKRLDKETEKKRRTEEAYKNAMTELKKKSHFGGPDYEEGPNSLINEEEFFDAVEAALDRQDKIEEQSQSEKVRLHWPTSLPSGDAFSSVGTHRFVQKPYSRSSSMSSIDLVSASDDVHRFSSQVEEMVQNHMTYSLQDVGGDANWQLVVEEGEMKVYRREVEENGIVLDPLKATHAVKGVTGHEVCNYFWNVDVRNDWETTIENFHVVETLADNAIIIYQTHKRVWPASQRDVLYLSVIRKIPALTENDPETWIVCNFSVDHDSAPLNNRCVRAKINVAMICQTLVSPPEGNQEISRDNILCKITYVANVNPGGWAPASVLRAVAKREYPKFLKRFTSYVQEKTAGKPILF

[2] = biological target: T2, StrepII-CERTL^P (hyperphosphorylated StrepII-tagged CERTL) (human, UniProt Q9Y5P4-1 1-624, hyperphosphorylated (sites not given)); assay: as above; details: both partners purified
T2 construct: human CERTL, UniProt Q9Y5P4-1, synthetic gene; Trimer by SEC-MALS (observed 184.3 kDa, expected 215.7 kDa); not shown: StrepII, N-terminal, kept
T2 sequence (looked up): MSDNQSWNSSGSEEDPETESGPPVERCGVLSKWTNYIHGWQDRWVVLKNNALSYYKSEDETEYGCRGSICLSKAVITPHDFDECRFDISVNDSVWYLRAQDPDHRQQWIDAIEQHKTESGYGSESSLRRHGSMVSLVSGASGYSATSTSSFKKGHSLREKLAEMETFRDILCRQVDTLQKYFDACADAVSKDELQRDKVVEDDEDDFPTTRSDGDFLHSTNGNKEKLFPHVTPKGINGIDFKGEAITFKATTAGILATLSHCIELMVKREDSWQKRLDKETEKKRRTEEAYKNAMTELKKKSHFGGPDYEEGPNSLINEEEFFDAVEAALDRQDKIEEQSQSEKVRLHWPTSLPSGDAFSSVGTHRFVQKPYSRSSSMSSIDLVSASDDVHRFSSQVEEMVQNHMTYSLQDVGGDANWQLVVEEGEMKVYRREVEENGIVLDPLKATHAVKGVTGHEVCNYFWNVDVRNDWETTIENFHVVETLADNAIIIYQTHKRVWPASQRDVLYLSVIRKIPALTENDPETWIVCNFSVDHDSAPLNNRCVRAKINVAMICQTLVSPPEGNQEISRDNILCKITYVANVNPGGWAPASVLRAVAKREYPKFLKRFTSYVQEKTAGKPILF

[3] = biological target: T3, StrepII-CERT^P (UniProt Q9Y5P4-2 1-598, hyperphosphorylated (sites not given)); assay: cell-based or functional assay
T3 sequence (looked up): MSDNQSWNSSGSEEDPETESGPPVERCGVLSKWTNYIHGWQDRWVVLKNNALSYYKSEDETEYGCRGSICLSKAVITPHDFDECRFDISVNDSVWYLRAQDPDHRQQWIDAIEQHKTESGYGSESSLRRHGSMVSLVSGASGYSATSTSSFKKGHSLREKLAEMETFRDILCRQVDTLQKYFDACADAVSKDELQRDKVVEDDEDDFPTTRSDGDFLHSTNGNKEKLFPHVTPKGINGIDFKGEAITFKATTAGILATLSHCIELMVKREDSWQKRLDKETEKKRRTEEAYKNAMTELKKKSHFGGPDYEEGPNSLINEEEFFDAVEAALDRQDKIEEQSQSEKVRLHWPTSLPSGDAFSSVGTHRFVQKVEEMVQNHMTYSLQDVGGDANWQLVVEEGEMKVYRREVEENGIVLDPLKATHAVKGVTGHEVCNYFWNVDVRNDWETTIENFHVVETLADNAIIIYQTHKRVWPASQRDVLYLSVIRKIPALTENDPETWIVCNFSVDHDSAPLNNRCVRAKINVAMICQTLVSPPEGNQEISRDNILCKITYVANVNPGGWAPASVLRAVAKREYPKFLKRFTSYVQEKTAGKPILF

B1: pUL21-H6 (natural protein)
chain: MELSYATTMHYRDVVFYVTTDRNRAYFVCGGCVYSVGRPCASQPGEIAKFGLVVRGTGPDDRVVANYVRSELRQRGLQDVRPIGEDEVFLDSVCLLNPNVSSELDVINTNDVEVLDECLAEYCTSLRTSPGVLISGLRVRAQDRIIELFEHPTIVNVSSHFVYTPSPYVFALAQAHLPRLPSSLEALVSGLFDGIPAPRQPLDAHNPRTDVVITGRRAPRPIAGSGAGSGGAGAKRATVSEFVQVKHIDRVGPAGVSPAPPPNNTDSSSLVPGAQDSAPPGPTLRELWWVFYAADRALEEPRADSGLTREEVRAVRGFREQAWKLFGSAGAPRAFIGAALGLSPLQKLAVYYYIIHRERRLSPFPALVRLVGRYTQRHGLYVPRPDDPVLADAINGLFRDALAAGTTAEQLLMFDLLPPKDVPVGSDVQADSTALLRFIESQRLAVPGGVISPEHVAYLGAFLSVLYAGRGRMSAATHTARLTGVTSLVLAVGDVDRLSAFDRGAAGAASRTRAAGYLDVLLTVRLARSQHGQSV
notes: HSV-1 pUL21, UniProt F8RG07; some paragraphs print H6-pUL21; also called H6-pUL21; WT pUL21; source: E. coli T7 Express lysY/Iq, purified (Ni-NTA, SEC); not shown: His6, C-terminal, kept
For B1, the Kd [1] was 642 nM, the Kd [2] was 773 nM and the “EC50 of pUL21-H6 (62.5 nM to 4 μM) for accelerating GST-PP1-mediated dephosphorylation of 0.5 μM CERT^P in vitro, all proteins purified, 25 nM GST-PP1γ, 30 min at 30 °C” value [3] was 0.491 μM.
